Read-outs that look alike come from different tables or passages of the source.
Key:
Assay in all cases: SPR
[1] = target: T1, mIL10RaFc (Sino 51298-M02H) (mouse, UniProt Q61727)
T1 chain: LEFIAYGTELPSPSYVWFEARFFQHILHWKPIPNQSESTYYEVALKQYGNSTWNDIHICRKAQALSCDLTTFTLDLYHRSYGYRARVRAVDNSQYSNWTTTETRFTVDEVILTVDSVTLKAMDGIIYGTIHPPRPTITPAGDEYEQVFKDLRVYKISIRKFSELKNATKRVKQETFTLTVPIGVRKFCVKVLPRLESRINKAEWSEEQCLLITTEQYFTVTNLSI

[2] = target: T1, mIL10RaFc (Sino 51298-M02H)
[3] = target: T2, hIL10RaFc (R&D 9044-RI) (human, UniProt Q13651)
T2 chain: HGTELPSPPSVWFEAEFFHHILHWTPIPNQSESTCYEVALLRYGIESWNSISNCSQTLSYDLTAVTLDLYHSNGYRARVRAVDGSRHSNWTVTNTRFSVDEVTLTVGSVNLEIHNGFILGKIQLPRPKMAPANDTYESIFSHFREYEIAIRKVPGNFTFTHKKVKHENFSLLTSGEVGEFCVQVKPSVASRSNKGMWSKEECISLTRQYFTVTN

Binder	Kd [2]	also measured
mIL10 WT (protein, wild-type mouse IL10, homodimer; exact construct/tag not stated) SRGQYSREDNNCTHFPVGQSHMLLELRTAFSQVKTFFQTKDQLDNILLTDSLMQDFKGYLGCQALSEMIQFYLVEVMPQAEKHGPEIKEHLNSLGEKLKTLRMRLRRCHRFLPCENKSKAVEQVKSDFNKLQDQGVYKAMNEFDIFINCIEAYMMIKMKS		Kd [1]: 0.81 nM
DR2820 (designed binder) GKCKAVEQVKSDFNKLQDQGVYKAMNEFDIFINAIEAYMMIKMKSQYSREDNNCTHFPVGQSHMLLELRTAFSQVKTFFQTKDQLDNILLTDSLMQCFKGYLGCQALSEMIQFYLVEVMPQAEKHGPEIKEHLNSLGEKLKTLRMRLRRCHRFLPCEN	3.37 nM	
DR2819 (designed binder) GKSKCVEQVKSDFNKLQDQGVYKAMNEFDIFINAIEAYMMIKMKSQYSREDNNCTHFPVGQSHMLLELRTAFSQVKTFFQTKDQLDNILLTDSLMQCFKGYLGCQALSEMIQFYLVEVMPQAEKHGPEIKEHLNSLGEKLKTLRMRLRRCHRFLPCEN	2.71 nM	
DR2821 (designed binder) GKSKACEQVKSDFNKLQDQGVYKAMNEFDIFINAIEAYMMIKMKSQYSREDNNCTHFPVGQSHMLLELRTAFSQVKTFFQTKDQLDNILLTDSLMQDFKGYLGCQALSCMIQFYLVEVMPQAEKHGPEIKEHLNSLGEKLKTLRMRLRRCHRFLPCEN	4.49 nM	
DR2818 (designed binder) GKSKCVEQVKSDFNKLQDQGVYKAMNEFDIFINAIEAYMMIKMKSQYSREDNNCTHFPVGQSHMLLELRTAFSQVKTFFQTKDQLDNILLTDSCMQDFKGYLGCQALSEMIQFYLVEVMPQAEKHGPEIKEHLNSLGEKLKTLRMRLRRCHRFLPCEN	2.34 nM	
DR2806 (designed binder) GKSKAVEQVKSIFNKLQDQGVYKAMNEFDIFINAIEAYMMIKMKSSREDNNCTHFNVGLSHMLLELRTAFSQVKTFFQTKDQLDNILLTDSLMQDFKGYLGCQALSEMIQFYLVEVLPQAEKHGPEIKEHLNSLGEILKTLRMRLRRCHRFLPCEN	2.7 nM	
DR2809 (designed binder) GKSKAVEQVKSIFNKLQDQGVYKAMNEFDIFINAIEAYMMIKMKSSREDNNCTHAPVGQSHMLLELRTAFSQVKTFFQTKDQLDNILLTDSLMQDFKGYLGCQALSEMIQFYLVEVLPQAEKHGPEIKEHLNSLGEKLKTLRMRLRRCHRFLPCEN	17.3 nM	
DR2816 (designed binder) GKSKAVEQVKSDFNKLQDQGVYKAMNEFDIFINAIEAYMMIKMKSSREDNNCTHAPVGQSHMLLELRTAFSQVKTFFQTKDQLDNILLTDSLMQDFKGYLGCQALSEMIQFYLVEVLPQAEKHGPEIKEHLNSLGEILKTLRMRLRRCHRFLPCEN	1.61 nM	
DR2808 (designed binder) GKSKAVEQVKSIFNKLQDQGVYKAMNEFDIFINAIEAYMMIKMKSSREDNNCTHAPVGQSHMLLELRTAFSQVKTFFQTKDQLDNILLTDSLMQDFKGYLGCQALSEMIQFYLVEVLPQAEKHGPEIKEHLNSLGEILKTLRMRLRRCHRFLPCEN	1.35 nM	
DR2817 (designed binder) GKSKAVEQVKSDFNKLQDQGVYKAMNEFDIFINAIEAYMMIKMKSSREDNNCTHAPVGQSHMLLELRTAFSQVKTFFQTKDQLDNILLTDSLMQDFKGYLGCQALSEMIQFYLVEVLPQAEKHGPEIKEHLNSLGEKLKTLRMRLRRCHRFLPCEN	1.65 nM	
DR2807 (designed binder) GKSKAVEQVKSIFNKLQDQGVYKAMNEFDIFINAIEAYMMIKMKSSREDNNCTHFPVGQSHMLLELRTAFSQVKTFFQTKDQLDNILLTDSLMQDFKGYLGCQALSEMIQFYLVEVMPQAEKHGPEIKEHLNSLGEKLKTLRMRLRRCHRFLPCEN	144 nM	
DR2803 (designed binder) GKSKAVEQVKSIFNKLQDQGVYKAMNEFDIFINAIEAYMMIKMKSSREDNNCTHAPVAFWHMLLELRTAFSQVKTFFQTKDQLDNILLTDSLMQDFKGYLGCQALSEMIQFYLVEVLPQAEKHGPEIKEHLNSLGEILKTLRMRLRRCHRFLPCEN	1.7 nM	
DR2823 (designed binder) GKSKAVEQVKSDFNKLQDQGVYKAMNEFDIFINAIEAYMMIKMKSSREDNNCTHFPVGQSHMLLELRTAFSQVKTFFQTKDQLDNILLTDSLMQDFKGYLGCQALSEMIQFYLVEVMPQAEKHGPEIKEHLNSLGEKLKTLRMRLRRCHRFLPCEN	5.2 nM	
DR2804 (designed binder) GKSKAVEQVKSIFNKLQDQGVYKAMNEFDIFINAIEAYMMIKMKSSREDNNCTHAPVGMSHMLLELRTAFSQVKTFFQTKDQLDNILLTDSLMQDFKGYLGCQALSEMIQFYLVEVLPQAEKHGPEIKEHLISLGEILKTLRMRLRRCHRFLPCEN	1.59 nM	
DR2802 (designed binder) GKSKAVEQVKSIFNKLQDQGVYKAMNEFDIFINAIEAYMMIKMKSSREDNNCTHFMVAMSHMLLELRTAFSQVKTFFQTKDQLDNILLTDSLMQDFKGYLGCQALSEMIQFYLVEVLPQAEKHGPEIKEHLNSLGEKLKTLRMRLRRCHRFLPCEN	2.29 nM	
DR2805 (designed binder) GKSKAVEQVKSIFNKLQDQGVYKAMNEFDIVINAIEAYMMIKMKSSREDNNCTHAPVMFSHMLLELRTAFSQVKTFFQTKDQLDNILLTDSLMQDFKGYLGCQALSEMIQFYLVEVLPQAEKHGPEIKEHLNSLGEILKTLRMRLRRCHRFLPCEN	30.9 nM	
DR2815 (designed binder) GKSKAVEQVKSDFNKLQDQGVYKAMNEFDIFINAIEAYMMIKMKSSREDNNCTHFNVVMSHMLLELRTAFSQVKTFFQTKDQLDNILLTDSLMQDFKGYLGCQALSEMIQFYLVEVLPQAEKHGPEIKEHLNSLGEKLKTLRMRLRRCHRFLPCEN	1 nM	
DR2813 (designed binder) GKSKAVEQVKSDFNKLQDQGVYKAMNEFDIFINAIEAYMMIKMKSSREDNNCTHFWVAMSHMLLELRTAASQVKTFFQTKDQLDNILLTDSLMQDFKGYLGCQALSEMIQFYLVEVLPQAEKHGPEIKEHLISLGEILKTLRMRLRRCHRFLPCEN	39.9 nM	
hIL10 WT (protein, wild-type human IL10, homodimer; exact construct/tag not stated) SPGQGTQSENSCTHFPGNLPNMLRDLRDAFSRVKTFFQMKDQLDNLLLKESLLEDFKGYLGCQALSEMIQFYLEEVMPQAENQDPDIKAHVNSLGENLKTLRLRLRRCHRFLPCENKSKAVEQVKNAFNKLQEKGIYKAMSEFDIFINYIEAYMTMKIRN		Kd [3]: 0.06 nM
DR2822 (designed binder) GKSKAVEQVKSDFNKLQDQGVYKAMNEFDIFINAIEAYMMIKMKSREDNNCTHFPVGQSHMLLELRTAFSQVKTFFQTKDQLDNILLTDSLMQDFKGYLGCQALSEMIQFYLVEVMPQAEKHGPEIKEHLNSLGEKLKTLRMRLRRCHRFLPCEN	6.42 nM	
WC161_AA (mIL10 WT inverted monomer) (designed binder) NKSKAVEQVKSDFNKLQDQGVYKAMNEFDIFINAIEAYMMIKMKSSRGQYSREDNNCTHFPVGQSHMLLELRTAFSQVKTFFQTKDQLDNILLTDSLMQDFKGYLGCQALSEMIQFYLVEVMPQAEKHGPEIKEHLNSLGEKLKTLRMRLRRCHRFLPCENGGSHHHHHHHH	5.27 nM	Kd [1]: 6.54 nM
h_DR1060_AA (hIL10 WT inverted monomer) (designed binder) KSKAVEQVKNAFNKLQEKGIYKAMSEFDIFINYIEAYMTMKIRNSPGQGTQSENSCTHFPGNLPNMLRDLRDAFSRVKTFFQMKDQLDNLLLKESLLEDFKGYLGCQALSEMIQFYLEEVMPQAENQDPDIKAHVNSLGENLKTLRLRLRRCHRFLPCENGGSHHHHHHHH		Kd [3]: 0.38 nM
